Measured values as given in US20210347873A1 (SHANGHAI PHARMAEXPLORER, published 2021).

What was measured:
[1] = biological target: T1, extracellular domain of human BLyS protein (hBLyS-ECD), His-tagged, Ala134-Leu285 (human, UniProt Q9Y275 134-285); assay: cell-based or functional assay
[2] = biological target: T1, extracellular domain of human BLyS …; assay: cell-based or functional assay; remark: listed apart in the source
[3] = biological target: T1, extracellular domain of human BLyS …; assay: SPR (Biacore), antibody captured by anti-human Fc, hBLyS-ECD as analyte
[4] = biological target: T2, biotinylated hBLyS-ECD (human, UniProt Q9Y275 134-285, biotinylated with Biotin-X-X-NHS (molar ratio 7:1); sites not stated); assay: competition ELISA; competitor 78C11D2D12
T2 construct: also called biotinylated immunogen; biotinylated hBLvS-ECD
Procedure: (§1) The purified human BLyS antibody and hybridoma antibody were subjected to competitive enzyme-linked immunosorbent assay and the epitopes binding by different antibodies were analyzed.
(§2) Purified BLyS antibody was first diluted to a final concentration of 1.0 μg/mL with PBS, then aliquoted into a 96-well ELISA plate at 50 μL per well, and the plate was subsequently sealed with plastic film and incubated at 4° C. overnight. On the next day the plate was rinsed four times with the plate washing buffer [PBS buffer containing 0.05% (v/v) Tween20] and mixed with blocking solution [PBS buffer containing 0.05% (v/v) Tween20 and 1% (w/w) BSA], and then blocked at 37° C. for 1 hour. The blocking solution was removed, and the competitive antibody and IgG control were diluted to a final concentration of 40 μg/mL with PBS and then aliquoted into the 96-well ELISA plate at 50 μL per well. The biotinylated hBLyS-ECD was then diluted with PBS to a final concentration of 2 ng/mL and pipetted into the 96-well ELISA plate at 50 μL per well. The final concentration of competitive antibody and hBLyS-ECD was 20 μg/mL and 1 ng/mL, respectively. After incubation at 37° C. for 1 hour, the plate was rinsed four times with the plate washing buffer [PBS buffer containing 0.05% (v/v) Tween20]. 100 μL per well of HRP-labeled (horseradish peroxidase) streptavidin (purchased from Sigma) was added into the plate and the plate was incubated at 37° C. for 1 hour. The plate was then washed four times with the plate washing buffer [PBS buffer containing 0.05% (v/v) Tween20]. 100 μL of TMB substrate was aliquoted into each well and after incubation at room temperature for 5 minutes, 100 μL of stop solution (1.0 N HCl) was aliquoted into each well. A₄₅₀ₙₘ values were read by an ELISA plate reader (SpectraMax M5e, purchased from Molecular Device) and the results were shown in Tables 18A-18B. […] The data shown in the table is the inhibitory rate (%) of the binding level of the original antibody to hBLyS-ECD after addition of the competitive antibody.

[5] = biological target: T2, biotinylated hBLyS-ECD; assay: competition ELISA; competitor 35E6F7C3
Procedure: as §1, §2

[6] = biological target: T2, biotinylated hBLyS-ECD; assay: competition ELISA; competitor 8E7D9C7F5
Procedure: as §1, §2

[7] = biological target: T2, biotinylated hBLyS-ECD; assay: competition ELISA; competitor 67A2E1D10
Procedure: as §1, §2

[8] = biological target: T2, biotinylated hBLyS-ECD; assay: competition ELISA; competitor 93C6F10D3
Procedure: as §1, §2

[9] = biological target: T2, biotinylated hBLyS-ECD; assay: competition ELISA; competitor 97A3C2H4
Procedure: as §1, §2

[10] = biological target: T2, biotinylated hBLyS-ECD; assay: competition ELISA; competitor 111D10D6G3
Procedure: as §1, §2

[11] = biological target: T3, biotinylated hBLyS-ECD (human, UniProt Q9Y275 134-285, biotinylated with Biotin-X-X-NHS (molar ratio 7:1), sites not stated); assay: ELISA: biotinylated hBLyS-ECD captured on streptavidin, antibody titrated, HRP secondary antibody
T3 construct: The hBLyS-ECD of Embodiment 1 after biotinylation (Embodiment 2); also called biotinylated immunogen; BLyS protein; not shown: His tag of the pCPC vector

| inhibitory rate (%) [4] | inhibitory rate (%) [5] | inhibitory rate (%) [6] | inhibitory rate (%) [7] | inhibitory rate (%) [8] | inhibitory rate (%) [9] | inhibitory rate (%) [10] | Binder | further results |
| --- | --- | --- | --- | --- | --- | --- | --- | --- |
|  |  |  |  |  |  |  | c93C6F10D3 (antibody, V domains shown) VH: EVQLVESGGGLVTPGGSLKLSCVASGFAFSTYGMSWVRQTPERRLEWVAYISGGGGSIYYPDSVKGRFTISRDNAKNILYLQMSSLKSEDTAMYHCTRHPDLLLRYDYALDHWGQGTSVTVSS VL: DIQMTQSPASLSASVGETVTITCRASENIHIYLAWYQQKQGKSPQLLVYNGKTLADGVPSRFSGSGSGTQYSLKINTLQPEDFGNYYCQHFWNSTWTFGGGTKLEIK | OD450 nm (as headed), mouse B lymphocyte proliferation; antibody 0 nM [1]: 4320; OD450 nm (as headed), mouse B lymphocyte proliferation; antibody 0.000256 nM [1]: 4600; OD450 nm (as headed), mouse B lymphocyte proliferation; antibody 0.00128 nM [1]: 4520; OD450 nm (as headed), mouse B lymphocyte proliferation; antibody 0.0064 nM [1]: 4920; OD450 nm (as headed), mouse B lymphocyte proliferation; antibody 0.032 nM [1]: 4520; OD450 nm (as headed), mouse B lymphocyte proliferation; antibody 0.16 nM [1]: 4300; OD450 nm (as headed), mouse B lymphocyte proliferation; antibody 0.8 nM [1]: 1090; OD450 nm (as headed), mouse B lymphocyte proliferation; antibody 4 nM [1]: 527; OD450 nm (as headed), mouse B lymphocyte proliferation; antibody 20 nM [1]: 434; OD450 nm (as headed), mouse B lymphocyte proliferation; antibody 100 nM [1]: 389; Proportion of B lymphocytes in splenocytes (%), in vivo in mice [2]: 27.1%; Kd [3]: 386 pM; koff [3]: 0.000212 s⁻¹; kon [3]: 549000 M⁻¹ s⁻¹ |
| 92% | 42% | 94% | 97% | 79% | 90% | 95% | 93C6F10D3 (antibody, V domains shown, Mouse hybridoma antibody purified on Protein G) VH: EVQLVESGGGLVTPGGSLKLSCVASGFAFSTYGMSWVRQTPERRLEWVAYISGGGGSIYYPDSVKGRFTISRDNAKNILYLQMSSLKSEDTAMYHCTRHPDLLLRYDYALDHWGQGTSVTVSS VL: DIQMTQSPASLSASVGETVTITCRASENIHIYLAWYQQKQGKSPQLLVYNGKTLADGVPSRFSGSGSGTQYSLKINTLQPEDFGNYYCQHFWNSTWTFGGGTKLEIK |  |
|  |  |  |  |  |  |  | c93C6F10D3 (antibody, human IgG1, V domains shown, also called BLyS chimeric antibody) VH: EVQLVESGGGLVTPGGSLKLSCVASGFAFSTYGMSWVRQTPERRLEWVAYISGGGGSIYYPDSVKGRFTISRDNAKNILYLQMSSLKSEDTAMYHCTRHPDLLLRYDYALDHWGQGTSVTVSS VL: DIQMTQSPASLSASVGETVTITCRASENIHIYLAWYQQKQGKSPQLLVYNGKTLADGVPSRFSGSGSGTQYSLKINTLQPEDFGNYYCQHFWNSTWTFGGGTKLEIK | EC50 (read off the curve) [11]: ~70 pM |
| 88% | 29% | 37% | 95% | 58% | 46% | 95% | 78C11D2D12 (antibody, V domains shown, Mouse hybridoma antibody purified on Protein G) VH: QVQLQQSGAELVRPGTSVKISCKASGYAFTNYWLGWVKQRPGHGLEWIGDIYPGSGNTYYNEKFKGKATLTADKSSSTAYMQLSSLTSEDSAVFFCAAYLYAMDYWGQGTSVTVSS VL: QIVLTQSPAIMSASPGEKVTITCSASSSVSYMHWFQQKPGTSPKLWIYSASNLASGVPARFSGSGSGTSYSLTISRMEAEDAATYYCQQRGSYPFTFGSGTKLEIK |  |
| 96% | 55% | 93% | 96% | 93% | 89% | 93% | 97A3C2H4 (antibody, V domains shown, Mouse hybridoma antibody purified on Protein G) VH: EVKLVESGGGLVQPGGSLKLSCAASGFTFSTYTMSWVRQTPEKRLEWVAYISYGGGSTSYPDTVKGRFTISRDNAKNTLYLQMSSLKSEDTAIYYCTRHVTVVENSMDYWGQGTSVTVSS VL: DILLTQSPDILSVSPGERVSFSCRASQSIGTSIHWYQQRTNGSPRLLIKYVSESFSGTPSRFSGSGSGTAFTLTINSVESEDIADYYCQQTHSWPWTFGGGTKLEIK |  |
| 86% | 22% | 27% | 96% | 41% | 26% | 95% | 111D10D6G3 (antibody, V domains shown, Mouse hybridoma antibody purified on Protein G) VH: QVQLQQPGAELVKPGASVKMSCKASGYTFTRHWITWVKQRPGQGLEWIGDIFPGSGSINYNEKFKSEATLTVEKSSSTAYMQLSSLTSEDSAVYYCARGDVDVWGTGTTVTVSS VL: DIQMTQSPSSLSASLGERVSLTCRASQEIRGYLSWLQQKPNGTIKRLIYAASTLDSGVPKRFSATRSGSDFSLTISSLESEDFADYYCLQYASYPFTFGSGTKLEIK |  |
|  |  |  |  |  |  |  | L1D12 (antibody, V domains shown) VH: QVQLVQSGGGLVQPGGSLRLSCAASGFTVSSNYMSWVRQAPGKGLEWVSVIYSGGSTYYADSVKGRFTISRDNSKNTLYLQMNSLRAEDTAVYYCARGFHDILTGYGMDVWGQGTTVTVSS VL: SSELTQDPAVSVALGQTVRITCQGDSLRNYYAGWYQQKPGQAPVLVIYGKNNRPSGIPDRFSGSSSGNTASLTITGTQAEDEADYYCSSRDNSGTHLVEFGGGTKLTVL | Proportion of B lymphocytes in splenocytes (%), in vivo in mice [2]: 26.8% |
| 36% | 91% | 27% | 33% | 33% | 26% | 38% | 35E6F7C3 (antibody, V domains shown, Mouse hybridoma antibody purified on Protein G) VH: EVQLQQSGAELVKPGASVKLSCTAAGFNIQDTYIHWVKQRPEQGLEWIGRIDPANANTVYDPKFQGKATITADTSSNTAYLQVSSLTSEDTAVYYCASPVITAGFAYWGQGTLVTVSA VL: QIVLTQSPAIMSASPGEKVTMTCGASSSVNYVHWYQQKSGTSPKRWIYDTSKLASGVPARFSGSGSGTSYSLTISSMEAEDAATYYCQQWTRSPLTFGAGTKVELK |  |
|  |  |  |  |  |  |  | c67A2E1D10 (antibody, human IgG1, V domains shown, also called BLyS chimeric antibody) VH: EVQLQQSGAELVKPGASVKLSCTASGFNIKNYYMHWVKQRTEEGLEWIGRIDPEDGETKYAPKFQAKATITADTSSNTAYLQLSSLTSEDTAVYFCARKGYYGNYGAWFAYWGQGTLVTVSA VL: DIQMTQSPASLSVSVGETVTITCRASEDLYSNLAWYQQKQGKSPQLLVYAATFLADGVPSRFSGSGSGTQYSLKINSLQSEDFGNYYCQHFWGTPPTFGGGTKLEIK | EC50 (read off the curve) [11]: ~100 pM |
| 80% | 18% | 63% | 93% | 44% | 75% | 86% | 67A2E1D10 (antibody, V domains shown, Mouse hybridoma antibody purified on Protein G) VH: EVQLQQSGAELVKPGASVKLSCTASGFNIKNYYMHWVKQRTEEGLEWIGRIDPEDGETKYAPKFQAKATITADTSSNTAYLQLSSLTSEDTAVYFCARKGYYGNYGAWFAYWGQGTLVTVSA VL: DIQMTQSPASLSVSVGETVTITCRASEDLYSNLAWYQQKQGKSPQLLVYAATFLADGVPSRFSGSGSGTQYSLKINSLQSEDFGNYYCQHFWGTPPTFGGGTKLEIK |  |
